Test results as given in doi:10.1101/2023.09.26.559624 (bioRxiv, 2023).

How the values were obtained:
[1] = target: T1, SASH1-SPIDER (396-564) S519N (human, UniProt O94885 396-564, S519N); test: NMR titration
T1 sequence (looked up): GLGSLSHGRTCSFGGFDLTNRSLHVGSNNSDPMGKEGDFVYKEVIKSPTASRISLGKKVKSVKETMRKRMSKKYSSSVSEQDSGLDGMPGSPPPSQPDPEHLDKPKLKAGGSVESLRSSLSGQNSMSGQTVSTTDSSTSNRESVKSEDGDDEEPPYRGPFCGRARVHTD

[2] = target: T2, human non-variant SASH1-SPIDER (396-564) (human, UniProt O94885 396-564); test: MST
T2 sequence (looked up): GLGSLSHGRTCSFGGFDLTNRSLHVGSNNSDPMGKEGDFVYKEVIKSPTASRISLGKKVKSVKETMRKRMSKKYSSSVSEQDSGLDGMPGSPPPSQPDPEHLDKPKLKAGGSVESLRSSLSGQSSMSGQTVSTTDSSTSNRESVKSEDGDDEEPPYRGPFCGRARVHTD

B1: ARC4 domain of TNKS2 with flanking residues (488-649) (domain or fragment, UniProt Q9H2K2 488-649, looked up)
chain: GNSEADRQLLEAAKAGDVETVKKLCTVQSVNCRDIEGRQSTPLHFAAGYNRVSVVEYLLQHGADVHAKDKGGLVPLHNACSYGHYEVAELLVKHGAVVNVADLWKFTPLHEAAAKGKYEICKLLLQHGADPTKKNRDGNTPLDLVKDGDTDIQDLLRGDAAL
modifications: red fluorescent dye NT-647 Maleimide (in the MST experiment only)
- fold attenuation of affinity against N.V. [1]: ~10 fold
- Kd [2]: 1.7 ± 0.4 µM
